Results: patent publication US11001846B2, “Aptamers, nucleic acid molecules, polynucleotides, synthetic antibodies compositions for detecting PRRS viruses and treating PRRS virus infection” (AEROVIRUS TECHNOLOGIES INC., priority 2015, dated 2021)
Values joined by “and” are separate entries in the source; they are usually repeats but may differ in a detail not shown here. Equal values may be shown once. “Also recorded” adds a separate entry of the source.

What was measured:
[1] = system: M-S-S-GP5 peptidic complex; experiment: ELISA reverse screening: binding to M-S-S-GP5 peptidic complex, type 2; settings: type 2 PRRSV complex
Description: ssDNA aptamers were denatured at 80° C. for 10 min and then cooled on ice for 10 min. Aptamers (30 nmole) were mixed with 25 μg of M-S-S-GP5 peptidic complex (further described in Example 6 below) in 500 μl selection buffer (50 mM Tris-HCl; pH 7.4, 5 mM KCl, 100 mM NaCl, 1 mM MgCl2 tRNA, 0.2% BSA) at 37° C. for 30 min. Aptamer-peptide complex was purified by adding the 25 μl Ni-NTA superflow and amplified by PCR using primers directed to the common T3 sequences in the aptamer library, and 3′-primer (i.e. -[…]-3′). SELEX was repeated 3 times, following which amplified nucleotides were transformed into E. coli. PCR conditions for SELEX included 5 min 95° C./1 min 95° C./1 min 55° C./1 min 72° C./10 min 72° C. and 100 pmole of each primer.
Selected ssDNA molecules from each individual clone were biotinylated using the B-T3 which is same sequence with 5′ primer (T3 primer), and Klenow fragment (2 unit/ml). To prepare single stranded biotin conjugated CoocSeq5 aptamer for the reverse screening, T3 Primer was Biotin labelled. A 96-well flat bottom ELISA plate was prepared by coating each well with 100 μl of streptavidin (100 μg/ml) diluted in 0.1 M NaHCO3 following by a 37° C. overnight incubation. Following several washings with PBS, wells were blocked with 200 μl of PBS containing 1% BSA for 2 hours at room temperature and subsequent washing three times with PBS-T (10 mM PBS containing 0.05% (v/v) Tween-20). […]
High binding capacity ELISA plates (Immunoplate, Nunc) were coated with 100 μl allantoic fluid containing 500 TCID50 of various PRRS virus strains diluted in phosphate buffered saline (PBS) by incubating at 4° C. overnight. […] Following this incubation period, plates were washed five times in PBS-T and bound antibodies were detected using horseradish peroxidase labelled goat anti-mouse IgG conjugates (HRP). […] Reaction was terminated with 50 μl of 2M H2SO4, plates were read with a multichannel spectrophotometer at 570 nm.

LHVA-93-3 PRRS virus [2] = experiment: In-vivo protection of swine from PRRSV infection (Example 3)
Description: Swine—SPF American Yorkshire swine at the age of 10-12 weeks were purchased. The selected swine were all exempt of PRRSV, SIV, and Mycoplasma Hyopneumoniae.
(§1) Swine were inoculated intranasally with sub-lethal infectious fluid containing 40TCID50/ml PRRS virus (LHVA-93-3) with or without 2.5 nmole A505 aptamer for different time intervals. Pig body weight was monitored for 2 weeks. Viral titer in the lungs was determined by the CPE titration method (OIE Terrestrial Manual—May 2015, Chapter 2.8.7—Porcine Reproductive and Respiratory Syndrome, section 1.1.3). Other pigs were sacrificed 6 days following viral inoculation and lungs were removed and homogenized in PBS 0.1% BSA (10% w/v). Following homogenization, samples were centrifuged to remove debris and stored at −80° C.
(§2) The cells/viruses were incubated for 2-5 days and observe daily for a CPE. At day 2, seed macrophages in new microtitre plates. Fifty (50) μl of the supernatants were transferred from the plates of the first passage to the corresponding wells of the freshly seeded plates (second passage). The wells were incubated for 2-5 days and observed daily for a CPE. The results of the CPE assays were presented as log TCID50.
For lung histology, pigs were sacrificed at day 7 and lungs were removed into 10% neutral buffered formalin (pH 7.0). Lungs were then sectioned and stained with haemotoxylin and eosin.
The antiviral properties of A505 were determined in vivo prior to and following viral infection. Briefly, the swine were divided into four groups designated ‘untreated’, ‘0 day’, ‘+1 day’ and ‘+2 day’. Each pig was challenged with 40 TCID50/ml of LHVA-93-3 PRRS viruses. Pigs in ‘0 day’ group were inoculated with a mixture of the virus and 2.5 μmole/ml A505, intranasally (i.n.). Pigs in ‘+1 day’ and ‘+2 day’ groups were inoculated with 2.5 μmole/ml A505, in 1 day or 2 days following virus infection, respectively. PRRS infection was monitored by three parameters, including (i) body weight loss during 14 days following virus treatment; (ii) lung virus titre; (iii) histological examination of lungs—sections were taken 7 days following virus inoculation.

LHVA-93-3 PRRS virus [3] = experiment: In-vivo lung virus titer, LHVA-93-3, comparison with control oligonucleotide and Tilmicosin (Example 4); design: species or system swine; settings: intra-nasal
Description: as §1, §2
Tilmicosin (Pulmotil®) was purchased from Eli Lilly (Elanco®), Canada.
Were implemented as described hereinabove. A dose of 15 ug/Kg of A505 was used.
The ability of the A505 aptamer to inhibit PRRSV infection was also compared to that of one of the currently available “anti-PRRSV” drugs, the antibiotic Tilmicosin. To this end, both A505 and Tilmicosin were administered once, together with the virus, using the intra-nasal route. As is shown in Table 2 below, a dose of 60 mg/pig of Tilmicosin (1 mg/kg body weight) reduced virus titer by 0.42 log TCID50, representing a 2.6-fold reduction in virus burden. This is in comparison to a reduction by 1.21 log TCID50 affected by A505 in this particular experiment (over 10 fold reduction in virus burden).

B1: A505: ssDNA aptamer binding type 2 PRRSV M-S-S-GP5 complex (nucleic acid)
DNA: GGGCGACCCTGAAGAGTTTGTAATCTGCGATTTTAAAGTTGAGTCGTCGCGAAACGGTGAAAGCCGTAGGTTGCCC
modifications: DNA, backbone and methylation of C not given here
With B1 the “binding to the M-S-S-GP5 complex/heterodimer” value [1] was “highly significant differences from the control ssDNA; also recorded: binding capacity to the M-S-S-GP5 complex; also recorded: found to bind the M-S-S-GP5 heterodimer”, the body weight loss (LHVA-93-3 PRRS virus [2]; 14 days, treatment groups +2 day, 0 day, +1 day vs control group, FIG. 12a) was “significantly lower weight loss and enhanced recovery” and the “protection equivalent to lung virus titer difference” value (LHVA-93-3 PRRS virus [2]; '0 day' group) was “over 99%”. The “difference in lung virus titer compared to the non-treated group” value (LHVA-93-3 PRRS virus [2]; '0 day' group, 2.5 μmole/ml A505 i.n. mixed with virus, 40 TCID50/ml, FIG. 12b) was “more than 2 log”, the “protection in lung virus titer, treatment after infection” value (LHVA-93-3 PRRS virus [2]; '+1 day' and '+2 day' groups) was “Further protection” and the “reduction of viral load in the lungs vs infected group” value (LHVA-93-3 PRRS virus [2]; all three A505-treated groups, six days after infection, p<0.05, FIG. 12b) was “statistically significant”. For the same molecule, the “lung histology, inflamed areas” value (LHVA-93-3 PRRS virus [2]; sections 7 days after virus inoculation, intranasal A505) was “reduces the inflamed areas in lungs”, the “Reduction Factor” value (LHVA-93-3 PRRS virus [3]; Table 2, administered once with the virus) was 17.1 and the “Δ (log TCID50), reduction of virus titer” value (LHVA-93-3 PRRS virus [3]; administered once together with the virus, Tilmicosin 60 mg/pig (1 mg/kg), A505 15 ug/Kg) was 1.21 log TCID50 and 1.23 log TCID50. The “reduction in virus burden” value (LHVA-93-3 PRRS virus [3]; administered once with the virus) was “over 10 fold”.
